{"source": "paper PMC2909203", "about": "“Defining the Functional Domain of Programmed Cell Death 10 through Its Interactions with Phosphatidylinositol-3,4,5-Trisphosphate” (PLoS ONE, 2010)", "proteins": {"B1": {"name": "Recombinant murine 6xHis-PDCD10, wild type (natural protein)", "chain": "not shown", "notes": "PDCD10 (CCM3), murine, full length, amplified from a mouse fibroblast cDNA library and cloned into pMCSG7-His; 212 amino acids; Dimer in solution by SEC-MALS; also called CCM3; WT; not shown: 6xHis, N-terminal, kept"}, "B2": {"name": "Recombinant murine 6xHis-PDCD10 Δ5KA mutant (K169A, K172A, K179A, K183A, K186A) (natural protein)", "chain": "not shown", "notes": "PDCD10 (CCM3), murine, full length, with five K-to-A mutations made by site-directed mutagenesis; Dimer in solution by SEC-MALS; also called Δ5KA PDCD10; mutant Δ5KA ccm3; source: E. coli BL21DE3, purified; not shown: 6xHis, N-terminal, kept"}}, "target": "the molecule itself", "assay": "SEC-MALS; 0.2 to 0.4 mg/ml purified His-tag protein in 10 mM phosphate buffer, pH 7.0, 500 mM NaCl; self-association, dimer the only species", "data": [{"protein": "B1", "values": [{"measurement": "stoichiometry N", "result": 2}]}, {"protein": "B2", "values": [{"measurement": "stoichiometry N", "result": 2}]}]}
